Reference: patent US7094554 (University of Texas, dated 2006)

Assays:
[1] = molecular target: T1, Cry1Ab toxin (trypsinized 60 kD toxin) (Bacillus thuringiensis, UniProt P0A370 29-620, limits assumed, radioiodinated (125I, chloramine T) where used as labelled ligand); assay: blot of E. coli lysate incubated with Cry1Ab toxin, then anti-toxin antiserum
T1 construct: domain: soluble trypsinized 60 kD toxin; also called Cry lAb

[2] = molecular target: T1, Cry1Ab toxin (trypsinized 60 kD toxin); assay: competition ligand blot, 125I-Cry1Ab with unlabeled Cry1Ab on the 32 kD protein, gamma counting

Binder	binding result [1]	Kd [2] [nM]
PBW-421 expressed protein (BT-R2 aa 1367-1496), 21 kD (receptor, also called 21 kD protein) LYTAGISTSDNINRELLTVRATHSENAQLTYTIEDGSMAVDSTLEAVKDSAFHLNAQTGVLILRIQPTASMQGMFEFNVIATDPDEKTDTAEVKVYLISSQNRVSFIFLNDVETVESNRDFIAETFSVGF	no binding	–
PBW-866 expressed protein (BT-R2 aa 1210-1496), 32 kD (receptor, also called 32 kD protein) EEGKEFEVTIRATDGGTEPRSYSTDSTITVLFVPTLGDPIFQDNTYSVAFFEKEVGLTERFSLPHAEDPKNKLCTDDCHDIYYRIFGGVDYEPFDLDPVTNVIFLKSELDRETTATHVVQVAASNSPTGGGIPLPGSLLTVTVTVREADPRPVFEQRLYTAGISTSDNINRELLTVRATHSENAQLTYTIEDGSMAVDSTLEAVKDSAFHLNAQTGVLILRIQPTASMQGMFEFNVIATDPDEKTDTAEVKVYLISSQNRVSFIFLNDVETVESNRDFIAETFSVGF	–	~17
